Paper PMC10673843, “Selection, characterization and in vivo evaluation of novel CD44v6-targeting antibodies for targeted molecular radiotherapy” (Scientific Reports, 2023)

Target: T1, CD44 (isoform 4), Fc-fused (Homo sapiens, UniProt P16070-4, strain)
T1 construct: printed MW 94.4 kDa; Fc-fused, dimeric presentation; For selections, ELISA and HTRF it was chemically biotinylated by amine coupling; also called CD44iso4; CD44iso4-Fc fusion construct; source: bought: Promab Biotechnologies, produced in HEK293 cells; not shown: Fc (IgG1), C-terminal, kept
Assay: SPR; single cycle kinetics; purified IgG4 captured by an immobilised anti-Fab antibody on a CM5 chip; CD44iso4 (Fc-fused, dimeric) injected in five concentrations between 80 and 0.3 nM; HBS with 0.05% Tween20, pH 7.5; 1:1 model; apparent (possible avidity from the dimeric target)
Details: both partners purified

B1: BIWA4 (bivatuzumab), as human IgG4 (antibody, V domains shown)
VH: EVQLVESGGGLVKPGGSLRLSCAASGFTFSSYDMSWVRQAPGKGLEWVSTISSGGSYTYYLDSIKGRFTISRDNAKNSLYLQMNSLRAEDTAVYYCARQGLDYWGRGTLVTVSS
VL: EIVLTQSPATLSLSPGERATLSCSASSSINYIYWYQQKPGQAPRLLIYLTSNLASGVPARFSGSGSGTDFTLTISSLEPEDFAVYYCLQWSSNPLTFGGGTKVEIK
notes: VH of BIWA4; human IgG4 heavy chain constant region from the in-house vector pHAT-hIgG4, with the hinge-stabilising S228P substitution; numbers count on: EU numbering; VL of BIWA4; light chain constant region of the vector pHAT-hIgG4; also called positive control; source: expiHEK293 cells, transfected, purified (Protein A beads)
B1: binds.
